Experiment [1] deals with receptor binding domain (RBD) of the wildtype (WT) SARS-CoV-2 spike protein (SARS-CoV-2, wildtype (sequence as in …)).
Experiment [2] concerns the target SARS-CoV-2 RBD for crystallisation (SARS-CoV-2 (wildtype), UniProt P0DTC2). In words: crystal structure.

B1: hRBD14 (antibody, V domains shown)
VH: EVQLVESGGGLVQPGGSLRLSCAASGFSFSSSDMHWVRQATGKGLEWVSGIGTSGDTYYLGSVKGRFTISRDDAKNSFYLQMNSLRAGDTAVYYCARGEMAATGLWYYFDYWGQGTLVTVSS
VL: not shown
Take B1: the binding result in experiment [1] was “binds”.

B2: mRBD2 Fab fragment (Fab, V domains shown)
VH: QVQLQQSGAELARPGASVKLSCKASGYTFISNGISWVKQRTGQGLEWIGEIYPRNGNTYYNEKFKGKATLTADKSSSTAYMELRSLTSEDSAVFFCARDYYYGSFDYWGQGTTLTVSS
VL: DIQMTQSPSSLSASLGERVSLTCRASREISGYLTWLQQKPDGTIKRLIYAASTLDSGVPKRFSGSRSGSDYSLTISSLESEDFADYYCLQYASYPWTFGGGTKLEIK
On to B2, for which the binding result in experiment [2] is “binds”.

B3: hRBD13 (antibody, V domains shown)
VH: QVQLVESGGGVVQPGRSLRLSCAVSGFTFRNYGMDWVRQAPGKGLEWVAVISYDGSNKYYADSVKGRFTISRDNSKNTLFLHLNSLRAEDTAVYYCAKAGGGPYCGGGNCYMHYFDYWGQGTQVTVSS
VL: DIQMTQSPSSLSASVGDRVTITCQASQDINNYLNWYQQKPGKAPKLLIYDASNLETGVPLRFSGSGSATHFSFTISSLQPEDIATYYCQQYDHLPCTFGQGTKLEIR
For B3, the binding result in experiment [1] was “binds”.

B4: hRBD15 (antibody, V domains shown)
VH: QVQLVQSGAEVKKPGASVKVSCKASGYTFTSQYMHWVRQAPGQGLEWMGIINPSGGSTSYAQKFQGRVTMTSDTSTSTVYMELSSLRSEDTAVYYCARDIYFVPARGGFDPWGQGTLVTVSS
VL: EIVLTQSPGTLSLSPGERATLSCRASQSIISSYLAWYQQKPGQAPRLLIYGASSRATGIPDRFSGSGSGTDFTLTISRLEPEDFAVYYCQQSGSAPRYTFGQGTKLEIK
Turning to B4, the binding result in experiment [1] is given as “binds”.

Values taken from doi:10.1101/2023.01.10.523494 (bioRxiv, 2023).
